From the RNAGym collection of RNA variant scans (doi:10.1073/pnas.2313332121)
Fewer inactive variants are shown than the library holds.

B1: TPR 5TU (parent)
chain: GGAUCUUCUCGAUCUAACAAAAAAGACAAAUCUGCCACAAAGCUUGAGAGCAUCUUCGGAUGCAGAGGCGGCAGCCUUCGGUGGCGCGAUAGCGCCAACGUUCUCAACUAUGACACGCAAAACGCGUGCUCCGUUGAAUGGAGUUUAUCAUG

Variants of: B1
Assay: polymerase ribozyme fitness, log enrichment relative to wild type (log ratio); higher = more active; in vitro selection for triplet polymerase activity
Method in brief: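 In triplicate, a single round of in vitro selection was run on each mutant library, PCR-built and transcribed, covering one subunit of a heterodimeric triplet polymerase ribozyme. Frozen incubation at −7 °C followed annealing with a biotinylated primer, partner subunit and triplets, and extended constructs were then gel-excised, streptavidin-captured and taken through RT-PCR. Fitness is the logarithm of genotype enrichment over wild-type enrichment, from inverse-variance-weighted replicate averages of Illumina-sequenced inputs and outputs. […] only genotypes with ≥10 input reads and ≥1 read per output were kept.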

Row | Variant | polymerase ribozyme fitness (log ratio)
1 | GGAUCUUCUCGAUCUAACAAAAAAGACAAAUCUGCCACAAAGCUUGAGAGCAUCUUCGUAUGCAGAGGCGGCAGCCUUCGGAGGCGCGAUAGAGCCAACGUUCUCAACUAUGACACGCAAAACGCGUGCUCCGUUGAAUGGCGUUUAUCAUG | ≤ -4.2
2 | GGAUCUUCUCGAUCUAACAAAAAAGACAAAUCUGCCACAAAGCUUGAGAGCAUCUUCGUAUGCAGAGGCGGCGGCCUUCGGUGGCAUGAUAGCGCCAACGUUCUCAACUAUGACACGCAAAACGCGUGCUCCGUUGAUUGGAGUUUAUCGUG | ≤ -4.2
3 | GGAUCUUCUCGAUCUAACAAAAAAGACAAAUCUGCCACAAAGCUUGAGAGCAUCUUCGUAUGCAGAGGCGGCAGCCUUCGGUGGCGCGAUAGUGCCAACGUUCUCAACUAUGACACGCAAAACGCGUGCUCCGUUGAAUGGAGUUUAUCAUG | -3.08
4 | GGAUCUUCUCGAUCUAACAAAAAAGACAAAUCUGCCACAAAGCUUGAGAGCAUCUUCGUAUGCAGAGGCGGCAGCCUUCGGUGGCGAGAUAGCGCCUACGUUCUCAACUAUGACACGCAAAACGCGUGCUCCGUUGAAUGGAGUUUAUCAUG | ≤ -4.2
5 | GGAUCUUCUCGAUCUAACAAAAAAGACAAAUCUGCCACAAAGCUUGAGAGCAUCUUCGGCUGCAGAGGCGGCAGCCUUCGGUGGAGCGAUAGCGCCAACGUUCUCAACUAUGACACGCAAAACGCGUGCUCCGUUGAAUGGAGUUUAUCAUG | -2.62
6 | GGAUCUUCUCGAUCUAACAAAAAAGACAAAUCUGCCACAAAGCUUGAGAGCAUCUUCGGCUGCAGAGGCGGCAGCCUUCGGUGGGGCGAUAGCGCCAACGUUCUCAACUAUGACACGCAAAACGCGUGCUCCGUUGAAUGGAGUUUAUCAUG | -3.9
7 | GGAUCUUCUCGAUCUAACAAAAAAGACAAAUCUGCCACAAAGCUUGAGAGCAUCUUCGGCUGCAGAGGCGGCAGCCUUCGGUAGCGCGAUAGCGCCAACGUUCUCAAGUAUGACACGCAAAACGCGUGCUCCGUUGAAUGGAGUUUAUCAUG | ≤ -4.2
8 | GGAUCUUCUCGAUCUAACAAAAAAGACAAAUCUGCCACAAAGCUUGAGAGCAUCUUCGUAUGCAGAGGCGGCAGCCUUCGGUGGCGCGAUAGCCCCAAAGUUCUCAACUAUGACACGCAAAACGCGUCUCCCGUUGAAUUGAGUUUAUCAUG | ≤ -4.2
9 | GGAUCUUCUCGAUCUAACAAAAAAGACAAAUCUGCCACAAAGCUUGAGAGCAUCUUCGUAUGCAGAGGCGGCAGCCUUCGGUGGCGCGAUAGCGCCAACGUUCUCAACUAUGACACGCAAAACGCGUGGUCCGUUGAAUGGAGUUUAUCAUG | -2.56
10 | GGAUCUUCUCGAUCUAACAAAAAAGACAAAUCUGCCACAAAGCUUGAGAGCAUCUUCGGCUGCAGAGGCGGCAGCCUUCGGUGGCGCGAUAGCGCCAAAGUUCUCAACUAUGGCACGCAAAACGCGGGCUCCGUUGAAUGGAGUUUAUCAUG | ≤ -4.2
11 | GGAUCUUCUCGAUCUAACAAAAAAGACAAAUCUGCCACAAAGCUUGAGAGCAUCUUCGUAUGCAGAGGCGGCAGCCUUCAGUGGAGCGAUAGCGCCAACGUUCUCAACUAUGACACGCAAAACGCGUGCUCCGUUGAAUGGAGUUUAUCAUG | -0.927
12 | GGAUCUUCUCGAUCUAACAAAAAAGACAAAUCUGCCACAAAGCUUGAGAGCAUCUUCGUAUGCAGAGGCGGCAGCCUUCGGUGGCGCGAUAGCGUCAACGUUCUCAACUAUGACACGCAAAACGCGUGCUCCUUUGAAUGGAGUUUAUCAUG | ≤ -4.2
13 | GGAUCUUCUCGAUCUAACAAAAAAGACAAAUCUGCCACAAAGCUUGAGAGCAUCUUCGUAUGCAGAGGGGGCAGCCUUCGGUGGCGCGAUAGCGUCAACGUUCUCAACUAUGACAGGCAAAACGCGUGCUCCGUUGAAUGGAGUUUAUCAUG | -1.81
14 | GGAUCUUCUCGAUCUAACAAAAAAGACAAAUCUGCCACAAAGCUUGAGAGCAUCUUCGUUUGCAGAGGCGGCAGCCUUCGGUGGAGCGAUAGCGCCAACGUUCUCAACUAUGACACGCAAAACGCGUGCUCCGUUGAAUGGAGUUUAUCAUG | -2.59
15 | GGAUCUUCUCGAUCUAACAAAAAAGACAAAUCUGCCACAAAGCUUGAGAGCAUCUUCGUAUGCAGAGGCGGCAGCGUUCGGUGGCGCGAUGGCGCCAACGUUCUCCACUAUGAUACGCAAAACGUGUACUCCGUUGAAUGGAUUUUAUCAUG | ≤ -4.2
16 | GGAUCUUCUCGAUCUAACAAAAAAGACAAAUCUGCCACAAAGCUUGAGAGCAUCUUCGUAUGCAGAGGCGGCAGCCUUCGGUGACGCGAUAGCGCCAACGUUCCCAACUAUGACACGCAAAACGCGUGCUCCGUUGAAUGGAGUUUAUCAUG | -0.647
17 | GGAUCUUCUCGAUCUAACAAAAAAGACAAAUCUGCCACAAAGCUUGAGAGCAUCUUCGUAUGCAGAGGCGGCAGCCUUCGGUGGCGCGAUAGCGCUAUCGUUCUCAACUAUGACACGCAAAACGCGUGCUCCGUUGAAUGGAGUUUAUCAUG | -0.711
18 | GGAUCUUCUCGAUCUAACAAAAAAGACAAAUCUGCCACAAAGCUUGAGAGCAUCUUCGUAUGCAGAGGCGGCAGCCUUCGGUGGCGCGAUAGCGAGAACGUUCUCAACUAUGACACGCUAAAUGCGUGCUCCGUUGAAUGGAGUUUAUUAUG | -3.57
19 | GGAUCUUCUCGAUCUAACAAAAAAGACAAAUCUGCCACAAAGCUUGAGAGCAUCUUCGUAUGCAGAGGCGGCAGCCUUCGGUGGCACGAUAGCGCCAACGUUCUCAACUAUGACACGCAAAACGCGUGCUCCGUUGAAUGGAGUUUAUCAUG | -1.19
